Our source for the EC50 values is US20240076396A1 (Regeneron, published 2024).

The target in this experiment is human GITR-L (6His.GCN4.G4Sx3.hGITR-L) (human, UniProt Q9UNG2 52-177). As to the kind of experiment: ELISA: hGITR.mmH (3.4 pM to 200 nM) on plate-coated hGITR-L, anti-cMyc-HRP detection. The protocol:
FIG. 13 depicts effects of anti-GITR antibody on human GITR binding to human GITR-L. Binding of human GITR protein, hGITR.mmH, at a range of concentrations (3.4 pM to 200 nM) to immobilized human GITR-L was evaluated by ELISA and EC₅₀ values for binding were determined. A fixed concentration of recombinant hGITR.mmH (1.5 nM), based on the EC₅₀ values calculated for binding to hGITR-L, was pre-incubated with mAb1, or an IgG1 isotype control at a range of concentrations (51 pM to 3 μM) and added to wells containing immobilized human GITR-L to determine the ability of the antibodies to block hGITR.mmH binding to immobilized human GITR-L. Binding of hGITR.mmH was detected with an HRP-conjugated cMyc antibody using TMB substrate, and the OD₄₅₀ was measured by spectrophotometry.
The binding of recombinant hGITR to its ligand, hGITR-L, was determined using an enzyme-linked immunosorbent assay (ELISA)-based binding assay. […] Plate-bound hGITR.mmH was detected with horseradish peroxidase (HRP) conjugated goat anti-cMyc antibody at 0.33 μg/ml and visualized using the colorimetric HRP substrate 3-3′, 5-5′-tetramethylbenzidine (TMB) according to the manufacturer's recommended procedures. Absorbance data at 450 nm (OD₄₅₀) were plotted as a function of the concentration of recombinant hGITR.mmH. […]
(An ELISA detects its analyte on a solid surface through an enzyme-linked reagent.)

Sequence of human GITR-L (6His.GCN4.G4Sx3.hGITR-L) (Q9UNG2 52-177): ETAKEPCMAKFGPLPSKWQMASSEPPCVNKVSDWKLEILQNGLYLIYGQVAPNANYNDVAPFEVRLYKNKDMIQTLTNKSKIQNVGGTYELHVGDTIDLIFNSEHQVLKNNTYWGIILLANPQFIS

B1: hGITR.mmH (soluble monomeric recombinant human GITR ectodomain protein) (receptor)
chain: QRPTGGPGCGPGRLLLGTGTDARCCRVHTTRCCRDYPGEECCSEWDCMCVQPEFHCGDPCCTTCRHHPCPPGQGVQSQGKFSFGFQCIDCASGTFSGGHEGHCKPWTDCTQFGFLTVFPGNKTHNAVCVPGSPPAEPEQKLISEEDLGGEQKLISEEDLHHHHHH
notes: also called monomeric human GITR
For the molecule B1, the EC50 amounted to 2.05 nM.

For orientation: EC50 means the concentration that produces a half-maximal response.
